This data set has as its target ZFP K-Ras G12D (six-finger zinc finger protein) (synthetic construct). Description: dot blot, 400 ng gDNA of PANC-1 (heterozygous G12D), ZFP 10 ug/ml, TBS-T/milk, RT; much stronger than WT or G13D gDNA. The following applies: tags: N-terminal 3xFLAG, NLS; expressed in E. coli from pET-30a(+). The protocol:
Genomic DNA (gDNA) was extracted from cancer cells using QIAamp DNA Mini Kit (51104, Qiagen Sciences, Inc., Germantown, MD). Concentration of the gDNA was measured by Qubit dsDNA BR Assay kit (Q32853, Invitrogen™, Thermo Fisher Scientific Inc., Waltham, MA) and adjusted to the same contraction. 400 ng of each gDNA was spotted onto a nitrocellulose membrane (15356, Sigma-Aldrich, Burlington, MA) using narrow-mouth pipette tip. Membranes were allowed to dry and then blocked by soaking in 5% non-fat milk in tris-buffered saline tween (TBS-T) at room temperature (RT) for 1 hour. Blocked membranes were incubated with ZFP ([…]) dissolved in milk/TBS-T for 1 hour at RT. The membranes were washed three times with TBS-T and incubated with anti-FLAG@antibody conjugated with horseradish peroxidase (HRP) (86861S, Cell Signaling Technology, Inc., Danvers, MA). The membranes were then washed three times with TBS-T (15 min×1, 5 min×2) and once with TBS (5 min). The signals were developed with enhanced chemiluminescent (ECL) horseradish peroxidase (HRP) substrate (SuperSignal West Pico PLUS Chemiluminescent Substrate, Catalog #34580, Thermo Fisher Scientific) and captured using the ChemiDoc MP Imaging System (12003154, Bio-Rad Laboratories, Hercules, CA).
FIG. 4 depicts dot blot results showing that the ZFPs from Example 3 can distinguish DNA sequences with one or two point mutations in vitro. […]

ZFP K-Ras G12D (six-finger zinc finger protein) (synthetic construct), sequence (chain, as listed by the source G12D G12D): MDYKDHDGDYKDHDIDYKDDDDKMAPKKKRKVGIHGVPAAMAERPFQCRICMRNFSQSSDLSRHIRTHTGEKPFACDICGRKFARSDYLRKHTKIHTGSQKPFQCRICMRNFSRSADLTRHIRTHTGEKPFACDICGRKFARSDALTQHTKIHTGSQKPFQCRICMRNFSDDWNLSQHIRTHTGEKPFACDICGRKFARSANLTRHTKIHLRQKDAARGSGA

B1: KRAS G12D target site (codon 12 GAT) (dsDNA)
DNA 1: GAGCTGATGGCGTAGGCA
DNA 2: TGCCTACGCCATCAGCTC
In the case of B1, the binding result is recorded as “binds”.

These data come from patent US20250051406, “CELL TARGETING COMPOSITIONS AND METHODS” (The Trustees of Indiana University, published 2025).
